Results as given in US7605150 (Stanford University, dated 2009).
One block for each binder: values may come before it. *1 amine or outer side, *2 acyl side, *3 side chain or, on linkers, in order; H or OH if unused. Where no end group is shown, it is not given here. [ ]: non-standard residue; d: D form. Aci = acivicin, (2S)-amino[(5S)-3-chloro-4,5-dihydroisoxazol-5-yl]acetic acid, O=C([C@@H](N[*:1])[C@@H]1CC(Cl)=NO1)[*:2]; DON = [N-]=[N+]=CC(=O)CC[C@H](N)C(=O)O

Columns and labels:
[1] = target: T1, recombinant human tissue transglutaminase (human, UniProt P21980 1-687, limits assumed); experiment: time-dependent inactivation of tTG (9 uM) by 0-600 uM inhibitor; residual activity by glutamate dehydrogenase-coupled assay at 340 nm; double-reciprocal plot
T1 construct: also called tTGase; tTG
T1 sequence (looked up): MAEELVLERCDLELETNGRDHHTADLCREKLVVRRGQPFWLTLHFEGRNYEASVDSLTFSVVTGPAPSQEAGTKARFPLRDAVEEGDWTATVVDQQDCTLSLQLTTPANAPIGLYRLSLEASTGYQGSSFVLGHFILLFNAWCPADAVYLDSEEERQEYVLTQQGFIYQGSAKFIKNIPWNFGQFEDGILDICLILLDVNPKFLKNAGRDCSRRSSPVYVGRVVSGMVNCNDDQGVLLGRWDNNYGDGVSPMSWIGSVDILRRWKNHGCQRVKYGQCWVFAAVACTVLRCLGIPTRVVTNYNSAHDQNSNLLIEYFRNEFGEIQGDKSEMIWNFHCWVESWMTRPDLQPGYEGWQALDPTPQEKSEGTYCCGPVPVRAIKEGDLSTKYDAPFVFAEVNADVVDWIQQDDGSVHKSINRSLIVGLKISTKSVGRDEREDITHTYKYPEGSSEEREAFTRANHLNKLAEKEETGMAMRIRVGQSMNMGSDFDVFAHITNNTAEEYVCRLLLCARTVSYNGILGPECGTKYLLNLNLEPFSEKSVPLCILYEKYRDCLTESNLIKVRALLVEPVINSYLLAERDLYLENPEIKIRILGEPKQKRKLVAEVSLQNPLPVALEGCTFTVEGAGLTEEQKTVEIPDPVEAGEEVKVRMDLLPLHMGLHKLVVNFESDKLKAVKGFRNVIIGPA

[2] = target: T1, recombinant human tissue …; experiment: time-dependent inactivation of tTG; residual activity by glutamate dehydrogenase-coupled assay at 340 nm; double-reciprocal plot
Ac-PQPQLPF-NH2 = target: T2, Ac-PQPQLPF-NH2
T2 chain: PQPQLPF

PQPQLPY = target: T3, PQPQLPY
T3 chain: PQPQLPY

Ki [1]: 780 µM
B1: Pro-Gln-Pro-Aci-Leu-Pro-Tyr (peptide)
peptide: PQP[Aci]LPY
notes: Free termini; also called PQPAciLPY; PQP-X-LPY with X = Aci

Ki [2]: 0.07 µM
B2: Ac-Pro-Gln-Pro-Don-Leu-Pro-Phe-NH2 (peptide)
peptide: Ac-PQP[DON]LPF-NH2
SMILES: CC(=O)N1CCC[C@H]1C(=O)N[C@@H](CCC(N)=O)C(=O)N1CCC[C@H]1C(=O)N[C@@H](CCC(=O)C=[N+]=[N-])C(=O)N[C@@H](CC(C)C)C(=O)N1CCC[C@H]1C(=O)N[C@@H](Cc1ccccc1)C(N)=O
notes: here X = DON; also called Ac-PQP-X-LPF-NH2 with X = DON; compound 41

B3: recombinant human tissue transglutaminase (protein)
chain: MAEELVLERCDLELETNGRDHHTADLCREKLVVRRGQPFWLTLHFEGRNYEASVDSLTFSVVTGPAPSQEAGTKARFPLRDAVEEGDWTATVVDQQDCTLSLQLTTPANAPIGLYRLSLEASTGYQGSSFVLGHFILLFNAWCPADAVYLDSEEERQEYVLTQQGFIYQGSAKFIKNIPWNFGQFEDGILDICLILLDVNPKFLKNAGRDCSRRSSPVYVGRVVSGMVNCNDDQGVLLGRWDNNYGDGVSPMSWIGSVDILRRWKNHGCQRVKYGQCWVFAAVACTVLRCLGIPTRVVTNYNSAHDQNSNLLIEYFRNEFGEIQGDKSEMIWNFHCWVESWMTRPDLQPGYEGWQALDPTPQEKSEGTYCCGPVPVRAIKEGDLSTKYDAPFVFAEVNADVVDWIQQDDGSVHKSINRSLIVGLKISTKSVGRDEREDITHTYKYPEGSSEEREAFTRANHLNKLAEKEETGMAMRIRVGQSMNMGSDFDVFAHITNNTAEEYVCRLLLCARTVSYNGILGPECGTKYLLNLNLEPFSEKSVPLCILYEKYRDCLTESNLIKVRALLVEPVINSYLLAERDLYLENPEIKIRILGEPKQKRKLVAEVSLQNPLPVALEGCTFTVEGAGLTEEQKTVEIPDPVEAGEEVKVRMDLLPLHMGLHKLVVNFESDKLKAVKGFRNVIIGPA
KM (Ac-PQPQLPF-NH2): 400 µM
kcat (Ac-PQPQLPF-NH2): 0.667 s⁻¹
kcat/KM (Ac-PQPQLPF-NH2): 97000 min^-1M^-1
KM (PQPQLPY): 300 µM
kcat (PQPQLPY): 0.467 s⁻¹
